Measurements: US12448434B2, “Antibodies specifically recognizing Pseudomonas PcrV and uses thereof” (priority 2019, dated 2025)
Where a chain is given by its changes, count along the chain named.

Key:
mutated PcrV = assay: Epitope mapping: ELISA binding to alanine-scanning mutated PcrV; parameters: species or system P. aeruginosa
Description: Using the discovery studio software, the predicted binding sites on PcrV for 7B1 and the optimized antibodies were identified, and the amino acid residues within the binding sites and in proximity to the binding sites were selected and subjected to alanine scanning. Subsequently, PcrV proteins carrying these selected mutations were expressed. The binding affinity of 7B1-IgG1 for each mutated PcrV protein was analyzed using ELISA. FIGS. 14A-14D show the ELISA binding curves of the antibodies for mutated PcrV, where mutation positions were according to sequence of SEQ ID NO: 71. As used herein, PcrV represents a His-tagged wild-type P. aeruginosa PcrV (PcrV-6His). Mutations at various positions of the amino acid sequence of the wild type PcrV were generated using alanine scanning as described above.

[1] = system: P. aeruginosa (PA103 strain); assay: Prophylactic mouse acute pneumonia model, survival; type: in vivo, BALB/c mice; settings: i.p. 24 h before infection, 1 or 10 mg/kg; 1*LD90 or 2*LD90; 7 days
Description: The candidate anti-PcrV antibodies were assayed for the ability to improve survival in a mouse acute pneumonia model. In a prophylactic model, 7-8 week old BALB/c mice (Vital River Laboratory) were administered the candidate antibodies or PBS intraperitoneally (i.p.) 24 hr before infection, at doses of 1, 5, 10 or 25 mg/kg mouse weight. […] Mouse survival was recorded for up to 7 days post-infection.
In a prophylactic model, 7-8 week old BALB/c mice (Vital River Laboratory) were administered with antibodies intraperitoneally (i.p.) 24 h before infection, at doses of 1 or 10 mg/kg mouse weight. […] Mouse survival was recorded for up to 7 days post-infection. The results were represented as Kaplan-Meier survival curves.

[2] = system: P. aeruginosa (PA103 strain); assay: Therapeutic mouse acute pneumonia model, survival; type: in vivo, BALB/c mice; settings: i.v. 1 h post-infection, 1 mg/kg or 10 mg/kg; 1*LD90; 6 days
Description: In a therapeutic model, to induce acute pneumonia, 7-8 week old BALB/c mice (Vital River Laboratory) were intranasally inoculated with P. aeruginosa (PA103 strain) suspended in a 40 μl inoculum at a lethal dose (1*LD90=8×10^5 CFU). Antibodies or PBS were administered intravenously (i.v.) at 1 h post-infection, at a dose of 1 mg/kg or 10 mg/kg mouse weight. Mouse survival was recorded for up to 6 days post-infection.

[3] = rat, in vivo, iv
Description: Pharmacokinetic profile in rat: 40 healthy adult rats (about 0.2 kg by weight) were equally into two groups, where each group registered similar average weight. One group was injected intravenously with 30 mg/kg of V2L2-MD, 7C1, 7B1, 8C1 or 6D10 and the other group was injected intravenously with 3 mg/kg of V2L2-MD, 7C1, 7B1, 8C1 or 6D10. Blood was collected at […], and subsequently at 0 hour, 0.5 hour, 2 hour, 8 hour, 1 day, 3 days, 7 days, 11 days, 17 days, 23 days, 31 days, 41 days and 52 days after injection. After centrifugation, the plasma was used for analyzing antibody concentration using ELISA. For the ELISA experiment, synthetic PcrV was used to coat the wells of a 96-well plate. On the following day, after washing with PBST, blocking with 200 μL PBS-milk for an hour, and another wash with PBST, the plasma was added and incubated for an hour at 37° C. The plate was washed with 0.1% TBST for 6 times before 100 μL of Goat-anti-human Fc antibody-AP (1:3000 in PBS) was added to each well and incubated for an hour. After washing with 0.1% TBST for 6 times, 50 μL of pNPP was added to each well and color was developed for 10-20 minutes at 37° C. The signals were read by a microplate reader at 410 nm.

[4] = system: P. aeruginosa (PA103 strain); assay: Mouse intraperitoneal infection model, antibody alone or combined with antibiotics, survival; type: in vivo, BALB/c mice; settings: antibody 5 mg/kg i.p. 24h before infection; 3*LD90; 5 days; FIG. 12A
Description: The ability of the optimized anti-PcrV antibody 7B1 or 8C1 to improve survival in mouse intraperitoneal infection model was evaluated in comparison to antibiotics Meropenem, Tobramycin, Ciprofloxacin; and also in comparison to combination treatment of 7B1 or 8C1 with either antibiotic. HIV-10E8 was used as negative control.
In a prophylactic model for anti-PcrV testing, 7-8 week old BALB/c mice (Vital River Laboratory) were intraperitoneally injected with antibody 24h before infection or with antibiotic 1h post infection. Specifically, the mice were administered with either optimized anti-PcrV antibody clone 7B1 or 8C1 (at 5 mg/kg), Meropenem (at 3 mg/kg), Tobramycin (at 10 mg/kg), Ciprofloxacin (at 30 mg/kg), or a combination of 7B1 or 8C1 with one of the antibiotics. To induce intraperitoneal infection, the BALB/c mice were intraperitoneally inoculated with P. aeruginosa (PA103 strain) suspended in a 300 μl inoculum at triple the lethal dose (3*LD90=7×10^5 CFU). Mouse survival was recorded for up to 5 days post-infection.

[5] = system: P. aeruginosa (O6-57/66 strain); assay: Prophylactic mouse intraperitoneal infection model, survival; type: in vivo, BALB/c mice; settings: 5 mg/kg antibody dose i.p. 24 h before infection; 3*LD90; 5 days
Description: The ability of the optimized anti-PcrV antibodies 7C1, 7B1 and 8C1 to improve survival in a mouse intraperitoneal infection model was evaluated in comparison to parental 13-42 mAb. HIV-10E8 was used as negative control. The mouse intraperitoneal infection model was generated as described previously (See Warrener et al., 2014, Antimicrob. Agents Chemother., 58, 4384-4391).
In a prophylactic model, 7-8 week old BALB/c mice (Vital River Laboratory) were administered antibodies by intraperitoneal (i.p.) injection 24 h before infection, at doses of 5 or 25 mg/kg mouse weight. To induce intraperitoneal infection, the BALB/c mice were intraperitoneally inoculated with P. aeruginosa (O6-57/66 strain) suspended in a 300 μl inoculum at triple the lethal dose (3*LD90=7×10^5 CFU). Mouse survival was recorded for up to 5 days post-infection.

B1: 7B1: optimized anti-PcrV mAb clone; VH SEQ ID NO: 62, VL SEQ ID NO: 67 (antibody, V domains shown)
VH: EVQLLESGGGLVQPGGSLRLSCTASGFTFSDNYMSWVRQAPGKGLDWVSVISESGGSTNYADSVKGRFSTSRDNSKSTLYLDMNSLRAEDTAIYYCAKGRFSTLSSHFFRAVYGMDVWGQGTAVTVSS
VL: DIQLTQSPSSLSASVGDRVTITCRASQGISSYLAWYQQKPGKAPKLLIYAASTLQSGVPSRFSGSGSGTDFTLTISSLQPEDFATYYCQQLSSYPLTFGGGTKVEIK
effect of PcrV mutation at position D165 on binding (mutated PcrV; FIG. 14C): affected binding
effect of PcrV mutation at position Q160 on binding (mutated PcrV; FIG. 14C): significantly affected binding
effect of PcrV mutation at position D170 on binding (mutated PcrV; FIG. 14D): affected binding
effect of PcrV mutation at position D173 on binding (mutated PcrV; FIG. 14D): affected binding
effect of PcrV mutation at position S202 on binding (mutated PcrV; FIG. 14D): affected binding
effect of PcrV mutation at position T175 on binding (mutated PcrV; FIG. 14D): affected binding
survival improvement relative to parental 13-42 mAb [1]: comparable or better survival improvements
survival improvement relative to V2L2-MD [2]: survival improvement comparable to that of V2L2-MD
half-lives relative to reference antibody V2L2-MD [3]: comparable to or longer than that of reference antibody V2L2-MD
survival improvement of antibody alone relative to Meropenem (3 mg/kg) [4]: better or comparable survival improvement
survival improvement relative to parental 13-42 mAb [5]: comparable or better survival improvement

B2: 7C1: optimized anti-PcrV mAb clone; VH SEQ ID NO: 52, VL SEQ ID NO: 65 (antibody, V domains shown)
VH: B1 VH with Y33H, V50G, L104S, F109Y
VL: B1 VL with T97S
survival improvement relative to parental 13-42 mAb [1]: comparable or better survival improvements
survival improvement relative to V2L2-MD [2]: survival improvement comparable to that of V2L2-MD
half-lives relative to reference antibody V2L2-MD [3]: comparable to or longer than that of reference antibody V2L2-MD
survival improvement relative to parental 13-42 mAb [5]: comparable or better survival improvement

B3: 8C1: optimized anti-PcrV mAb clone; VH SEQ ID NO: 51, VL SEQ ID NO: 67 (antibody, V domains shown)
VH: B1 VH with Y33H, V50G, L104N, S106A
VL: B1 VL
survival improvement relative to V2L2-MD [2]: survival improvement comparable to that of V2L2-MD
half-lives relative to reference antibody V2L2-MD [3]: comparable to or longer than that of reference antibody V2L2-MD
